Bridges are numbered along the chain shown (N, C = ends). [ ]: non-standard residue; d: D form. Trp(7-Me) = Cc1cccc2c(C[C@H](N)C(=O)O)c[nH]c12; 2Nal = N[C@@H](Cc1ccc2ccccc2c1)C(=O)O; AEF = NCCOc1ccc(C[C@H](N)C(=O)O)cc1; αMeF = C[C@](N)(Cc1ccccc1)C(=O)O; Pen = CC(C)(S)[C@H](N)C(=O)O; αMeK = C[C@](N)(CCCCN)C(=O)O; Thp = NC1(C(=O)O)CCOCC1
T1: human IL-23R (interleukin-23 receptor) (human, UniProt Q5VWK5 24-629)
T1 sequence (looked up): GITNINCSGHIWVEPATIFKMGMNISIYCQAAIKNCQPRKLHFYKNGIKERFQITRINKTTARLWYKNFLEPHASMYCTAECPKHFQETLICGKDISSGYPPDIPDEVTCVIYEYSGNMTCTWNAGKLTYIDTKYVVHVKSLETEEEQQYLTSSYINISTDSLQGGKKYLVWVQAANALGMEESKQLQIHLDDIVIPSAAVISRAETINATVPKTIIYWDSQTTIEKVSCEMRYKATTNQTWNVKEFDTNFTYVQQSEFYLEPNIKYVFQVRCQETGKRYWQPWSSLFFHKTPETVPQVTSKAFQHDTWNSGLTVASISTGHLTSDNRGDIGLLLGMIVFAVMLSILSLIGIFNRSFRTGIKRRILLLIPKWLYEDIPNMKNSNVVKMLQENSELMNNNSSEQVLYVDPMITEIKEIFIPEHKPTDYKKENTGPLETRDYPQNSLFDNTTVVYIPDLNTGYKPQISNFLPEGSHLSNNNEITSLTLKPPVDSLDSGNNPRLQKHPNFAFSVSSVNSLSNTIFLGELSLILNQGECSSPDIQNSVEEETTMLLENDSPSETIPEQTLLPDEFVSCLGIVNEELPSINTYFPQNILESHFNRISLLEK

B1: Compound No. 76 (peptide)
peptide: Ac-[Pen]NT[Trp(7-Me)]K(Ac)[Pen][AEF][2Nal][αMeK]K(Ac)N[αMeF]-NH2
modifications: disulfide 1-6
SMILES: CC(=O)NCCCC[C@@H]1NC(=O)[C@H](Cc2c[nH]c3c(C)cccc23)NC(=O)[C@H]([C@@H](C)O)NC(=O)[C@H](CC(N)=O)NC(=O)[C@@H](NC(C)=O)C(C)(C)SSC(C)(C)[C@@H](C(=O)N[C@@H](Cc2ccc(OCCN)cc2)C(=O)N[C@@H](Cc2ccc3ccccc3c2)C(=O)N[C@@](C)(CCCCN)C(=O)N[C@@H](CCCCNC(C)=O)C(=O)N[C@@H](CC(N)=O)C(=O)N[C@@](C)(Cc2ccccc2)C(N)=O)NC1=O
B2: Compound No. 92 (peptide)
peptide: Ac-[dR][Pen]NT[Trp(7-Me)]K(Ac)[Pen][AEF][2Nal][Thp]EN[Thp]-NH2
modifications: disulfide 2-7
SMILES: CC(=O)NCCCC[C@@H]1NC(=O)[C@H](Cc2c[nH]c3c(C)cccc23)NC(=O)[C@H]([C@@H](C)O)NC(=O)[C@H](CC(N)=O)NC(=O)[C@@H](NC(=O)[C@@H](CCCNC(=N)N)NC(C)=O)C(C)(C)SSC(C)(C)[C@@H](C(=O)N[C@@H](Cc2ccc(OCCN)cc2)C(=O)N[C@@H](Cc2ccc3ccccc3c2)C(=O)NC2(C(=O)N[C@@H](CCC(=O)O)C(=O)N[C@@H](CC(N)=O)C(=O)NC3(C(N)=O)CCOCC3)CCOCC2)NC1=O
B3: Compound No. 77 (peptide)
peptide: Ac-[dR][Pen]NT[Trp(7-Me)]K(Ac)[Pen][AEF][2Nal][Thp]EN[αMeF]-NH2
modifications: disulfide 2-7
SMILES: CC(=O)NCCCC[C@@H]1NC(=O)[C@H](Cc2c[nH]c3c(C)cccc23)NC(=O)[C@H]([C@@H](C)O)NC(=O)[C@H](CC(N)=O)NC(=O)[C@@H](NC(=O)[C@@H](CCCNC(=N)N)NC(C)=O)C(C)(C)SSC(C)(C)[C@@H](C(=O)N[C@@H](Cc2ccc(OCCN)cc2)C(=O)N[C@@H](Cc2ccc3ccccc3c2)C(=O)NC2(C(=O)N[C@@H](CCC(=O)O)C(=O)N[C@@H](CC(N)=O)C(=O)N[C@@](C)(Cc3ccccc3)C(N)=O)CCOCC2)NC1=O

These binders were tested against T1, human IL-23R (interleukin-23 receptor) (assay: cell-based or functional assay).

PBMC pSTAT3 IC50 (nM)	pStat3 HTRF (nM), IC50, DB cells IL23R pSTAT3 cell assay	Binder
11 nM	1.5 nM	B1
3.3 nM	0.206 nM	B2
6.4 nM	0.353 nM	B3

Molecular target: T1, human IL-23R (interleukin-23 receptor)
Experiment: cell-based or functional assay
Remark: another data set of the same source

NK Cell Assay (nM), IC50, IFN-gamma after IL-23 and IL-18	Binder
4.01 nM	B1
1.46 nM	B2
2.33 nM	B3
